US20220267443A1

Target: CTLA-4-Ig
Assay: -; modified from Xu et al., JI 2012

Row | Substance | Kd [nM]
1 | CD80-Fc-His | 0.3
2 | CD86-Fc-His | 3.6
